Assay [1] concerns the target T1, STAT 1 protein (UniProt P42224 1-750, limits assumed).
T1 sequence (looked up): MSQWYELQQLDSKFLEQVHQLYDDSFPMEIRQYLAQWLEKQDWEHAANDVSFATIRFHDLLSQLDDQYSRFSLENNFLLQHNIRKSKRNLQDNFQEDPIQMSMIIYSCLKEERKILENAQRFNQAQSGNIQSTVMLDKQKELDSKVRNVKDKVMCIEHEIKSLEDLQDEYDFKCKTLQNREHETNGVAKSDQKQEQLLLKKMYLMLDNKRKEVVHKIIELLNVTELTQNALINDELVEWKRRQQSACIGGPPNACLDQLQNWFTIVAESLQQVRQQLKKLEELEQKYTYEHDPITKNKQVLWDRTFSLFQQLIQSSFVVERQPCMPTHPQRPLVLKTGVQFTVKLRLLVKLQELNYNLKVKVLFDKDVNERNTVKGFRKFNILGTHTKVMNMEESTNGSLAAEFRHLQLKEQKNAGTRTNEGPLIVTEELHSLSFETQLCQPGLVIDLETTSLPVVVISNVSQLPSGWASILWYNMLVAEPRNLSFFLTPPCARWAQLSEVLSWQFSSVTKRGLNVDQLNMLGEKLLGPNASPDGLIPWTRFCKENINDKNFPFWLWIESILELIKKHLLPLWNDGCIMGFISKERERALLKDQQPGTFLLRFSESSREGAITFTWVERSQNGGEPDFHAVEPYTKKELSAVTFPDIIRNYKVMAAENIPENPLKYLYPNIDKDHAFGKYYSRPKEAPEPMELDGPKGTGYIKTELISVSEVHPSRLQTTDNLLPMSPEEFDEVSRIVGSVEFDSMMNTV
As to the kind of experiment: sandwich ELISA, STAT protein coated at 0.5 µg/mL.

Assay [2] has as its target T2, STAT 5a protein (UniProt P42229 1-794, limits assumed).
T2 sequence (looked up): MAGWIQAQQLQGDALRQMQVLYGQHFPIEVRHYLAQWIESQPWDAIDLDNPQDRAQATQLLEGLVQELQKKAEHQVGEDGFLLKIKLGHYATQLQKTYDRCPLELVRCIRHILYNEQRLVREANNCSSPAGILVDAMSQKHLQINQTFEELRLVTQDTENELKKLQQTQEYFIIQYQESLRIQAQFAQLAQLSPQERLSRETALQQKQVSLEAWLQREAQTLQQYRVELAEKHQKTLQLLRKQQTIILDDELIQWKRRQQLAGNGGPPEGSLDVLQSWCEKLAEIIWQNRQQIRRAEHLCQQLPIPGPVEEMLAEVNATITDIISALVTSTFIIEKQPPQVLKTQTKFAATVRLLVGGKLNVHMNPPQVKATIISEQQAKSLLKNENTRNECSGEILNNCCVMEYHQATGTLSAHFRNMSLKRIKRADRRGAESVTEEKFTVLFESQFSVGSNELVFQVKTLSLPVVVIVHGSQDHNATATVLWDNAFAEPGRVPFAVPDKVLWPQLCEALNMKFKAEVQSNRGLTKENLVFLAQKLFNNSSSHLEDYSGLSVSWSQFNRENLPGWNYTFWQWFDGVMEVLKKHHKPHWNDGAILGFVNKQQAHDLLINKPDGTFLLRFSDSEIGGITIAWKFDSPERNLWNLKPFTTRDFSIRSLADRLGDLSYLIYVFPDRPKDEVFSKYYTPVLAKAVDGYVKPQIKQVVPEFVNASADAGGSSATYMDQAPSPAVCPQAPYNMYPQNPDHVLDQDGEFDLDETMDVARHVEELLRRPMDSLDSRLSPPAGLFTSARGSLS
As to the kind of experiment: sandwich ELISA, STAT protein coated at 0.5 µg/mL. A general note: An ELISA detects its analyte on a solid surface through an enzyme-linked reagent.

In assay [3] the target is T3, STAT 2 protein (UniProt P52630 1-851, limits assumed). Kind of assay: sandwich ELISA, STAT protein coated at 0.5 µg/mL.
Assay [4] concerns the target T1, STAT 1 protein. Kind of assay: sandwich ELISA, STAT protein coated at 0.5 µg/mL. The source holds these as a separate data set.
For assay [5], the target named is T2, STAT 5a protein. As to the kind of experiment: sandwich ELISA, STAT protein coated at 0.5 µg/mL. This is another data set of the same source.
The target of assay [6] is T3, STAT 2 protein. As to the kind of experiment: sandwich ELISA, STAT protein coated at 0.5 µg/mL. The source holds these as a separate data set.
Assay [7] has as its target T1, STAT 1 protein. As to the kind of experiment: sandwich ELISA, STAT protein coated at 0.5 µg/mL. The source holds these as a separate data set.
Assay [8] has as its target T2, STAT 5a protein. As to the kind of experiment: sandwich ELISA, STAT protein coated at 0.5 µg/mL. The source holds these as a separate data set.
The target in assay [9] is T3, STAT 2 protein. As to the kind of experiment: sandwich ELISA, STAT protein coated at 0.5 µg/mL. This is another data set of the same source.
Assay [10] deals with T1, STAT 1 protein. Kind of assay: sandwich ELISA, STAT protein coated at 0.5 µg/mL. The source holds these as a separate data set.
Assay [11] has as its target T2, STAT 5a protein. As to the kind of experiment: sandwich ELISA, STAT protein coated at 0.5 µg/mL. The source holds these as a separate data set.
Assay [12] addresses T3, STAT 2 protein. As to the kind of experiment: sandwich ELISA, STAT protein coated at 0.5 µg/mL. This is another data set of the same source.
The target in assay [13] is TNF-alpha (U937 cytotoxicity assay of Example 16) (UniProt P01375 77-233, limits assumed). Kind of assay: cell-based or functional assay.
For assay [14], the target named is T4, active human TNF-α full length protein (human, UniProt P01375 77-233).
The target of assay [15] is T4, active human TNF-α full length protein. The source holds these as a separate data set.
For assay [16] the target is unchanged. The source holds these as a separate data set.
Assay [17] has the same target. This is another data set of the same source.
Assay [18] shares this target. This is another data set of the same source.
The target is the same in assay [19]. The source holds these as a separate data set.
The target is the same in assay [20]. The source holds these as a separate data set.
Assay [21] has the same target. The source holds these as a separate data set.
Assay [22] has the same target. The source holds these as a separate data set.
The target is the same in assay [23]. This is another data set of the same source.
The target is the same in assay [24]. This is another data set of the same source.
For assay [25] the target is unchanged. This is another data set of the same source.
Assay [26] has the same target. As to the kind of experiment: ELISA, wells coated with 0.5 µg/mL TNF-α, sdAb at 1 µg/mL.
The target in assay [27] is Human recombinant TNF-α (Sigma-Aldrich) (human, UniProt P01375 77-233). Kind of assay: cell-based or functional assay.

Read-outs that look alike come from different tables or passages of the source. Bounds are passed on as bounds.

The record followed here is patent US20170327598A1 (published 2017).

T3 sequence (P52630 whole entry): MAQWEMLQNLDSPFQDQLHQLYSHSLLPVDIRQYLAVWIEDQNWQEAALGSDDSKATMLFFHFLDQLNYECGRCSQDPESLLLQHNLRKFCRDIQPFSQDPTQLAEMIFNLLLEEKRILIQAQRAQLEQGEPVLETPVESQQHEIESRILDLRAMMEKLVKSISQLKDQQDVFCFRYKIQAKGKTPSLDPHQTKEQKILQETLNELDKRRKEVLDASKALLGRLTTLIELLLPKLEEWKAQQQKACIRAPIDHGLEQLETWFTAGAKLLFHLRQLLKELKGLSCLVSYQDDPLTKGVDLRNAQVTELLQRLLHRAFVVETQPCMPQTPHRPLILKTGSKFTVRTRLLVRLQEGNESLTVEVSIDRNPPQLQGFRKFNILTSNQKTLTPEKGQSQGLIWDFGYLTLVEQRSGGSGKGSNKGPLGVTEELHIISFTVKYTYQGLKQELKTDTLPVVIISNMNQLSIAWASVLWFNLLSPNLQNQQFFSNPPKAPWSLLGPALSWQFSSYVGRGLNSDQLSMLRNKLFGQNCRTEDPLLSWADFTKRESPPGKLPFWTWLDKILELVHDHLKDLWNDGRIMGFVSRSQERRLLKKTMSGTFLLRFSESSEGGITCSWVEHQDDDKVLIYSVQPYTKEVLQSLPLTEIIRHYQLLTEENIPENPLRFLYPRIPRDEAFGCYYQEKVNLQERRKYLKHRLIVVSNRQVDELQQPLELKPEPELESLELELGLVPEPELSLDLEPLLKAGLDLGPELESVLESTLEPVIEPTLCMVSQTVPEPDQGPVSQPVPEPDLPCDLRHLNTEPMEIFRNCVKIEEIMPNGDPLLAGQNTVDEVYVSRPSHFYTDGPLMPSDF
Sequence of Human recombinant TNF-α (Sigma-Aldrich) (P01375 77-233 limits assumed): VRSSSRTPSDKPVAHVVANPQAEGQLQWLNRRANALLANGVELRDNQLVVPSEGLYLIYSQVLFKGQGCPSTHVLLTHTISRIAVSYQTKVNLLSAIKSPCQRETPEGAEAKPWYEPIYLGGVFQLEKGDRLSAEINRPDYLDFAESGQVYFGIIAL
T4 sequence (P01375 77-233 limits assumed): as above
Sequence of TNF-alpha (U937 cytotoxicity assay of Example 16) (P01375 77-233 limits assumed): as above

B1: STAT5-31 (SEQ ID NO:83) sdAb (VHH)
VHH: EVQLVESGGGSVQTGGSLRLSCAASGFPFSSHVMGWFRQAPGKKREGVAAISVDSGSTWYADSVKGRFTISLDSAKNTLYLQMNSLKPEDTAMYYCATRRGVILTLSPETYDYWGQGTQVTVSS
On to B1, for which the “Mean OD450” value in the assay with STAT 1 protein [1] stood at 0.015 OD450; with STAT 5a protein [2] it was 0 OD450; in the assay with STAT 2 protein [3], 0 OD450; in the assay with STAT 1 protein [4], 0.024 OD450; with STAT 5a protein [5], 0.017 OD450; with STAT 2 protein [6] it was 0.007 OD450. For the same molecule, the “Mean OD450” value stood at 0.056 OD450 with STAT 1 protein [7]; 0 OD450 with STAT 5a protein [8]; 0.015 OD450 with STAT 2 protein [9]; 0.122 OD450 in the assay with STAT 1 protein [10]; 0.158 OD450 with STAT 5a protein [11]; 0.076 OD450 in the assay with STAT 2 protein [12].

B2: anti-TNF-alpha VHH62 (SEQ ID NO:47) sdAb (VHH)
VHH: QVQLVESGGGPVQAGETLRLSCTASGFTFAEADMGWYRQAPGHECELVSTITTEGITSEASSYYADSVRGRFTISRDNAKNMVYLQMNSLKPEDTAVYYCAPDPYAYSTYSDYCSWAQGTQGTLVTVSS
Take B2: the “IC50 (inhibition of TNF-alpha cytotoxicity against U937 cells, ATP luminescence)” value in [13] was roughly 714 µg/mL.

B3: anti-TNF-alpha VHH62 (SEQ ID NO:47) sdAb (VHH)
VHH: QVQLVESGGGPVQAGETLRLSCTASGFTFAEADMGWYRQAPGHECELVSTITTEGITSEASSYYADSVRGRFTISRDNAKNMVYLQMNSLKPEDTAVYYCAPDPYAYSTYSDYCSWAQGTQGTLVTVSS
As for B3, the “Signal/Noise Ratio” value was 1.1 in assay [14]; 1.7 in [15]; 1.3 in [16]; 1.4 in assay [17]; 1.1 in assay [18]; 2 in [19]. For the same molecule, the “Signal/Noise Ratio” value amounted to 1.1 in assay [20]; 1.5 in assay [21]; 1.9 in assay [22]; 0.9 in assay [23]; 1.5 in assay [24]; 1.4 in [25]. In assay [26], the OD450 was 0.005 OD450.

B4: anti-TNF-alpha VHH69 (SEQ ID NO:46) sdAb (VHH)
VHH: EVQLVESGGGSVLAGGSLRLSCVASGFTSRYNYMAWFRQAPGKEREGVATIGTASGSADYYGSVKDRFTISQDNAKNTVYLQMNSLKPEDTAMYYCAARTYGTISLTPSDYRYWGQGTLVTVSS
With B4, the “IC50 (inhibition of TNF-alpha cytotoxicity against U937 cells, ATP luminescence)” value in assay [13] is greater than 208 µg/mL.

B5: anti-TNF-alpha VHH66 (SEQ ID NO:45) sdAb (VHH)
VHH: HVQLVESGGGSVEAGGSLRLSCAASGFRYAAYCMGWFRQADGKEREGVATIDIDGLTTHADSVKGRFTISRDNAKNTLSLQMNDLKPEDTAMYYCAADRDRCGSIWTYAYKYRGQGTLVTVSS
Regarding B5, in assay [27], the “EC50 (inhibition of TNF-α cytotoxicity on L929 cells, Assay 1, Batch A)” value is 2.9 µg/mL; the “EC50 (inhibition of TNF-α cytotoxicity on L929 cells, Assay 1, Batch B)” value turned out to be 1.2 µg/mL; the “EC50 (inhibition of TNF-α cytotoxicity on L929 cells, Assay 1, Batch C)” value was 2.3 µg/mL; the “EC50 (inhibition of TNF-α cytotoxicity on L929 cells, Assay 2, Batch B)” value was found to be 4.5 µg/mL. For the same molecule, the “EC50 (inhibition of TNF-α cytotoxicity on L929 cells, Assay 2, Batch C)” value in [27] stood at 6.2 µg/mL.

B6: anti-TNF-alpha VHH66 (SEQ ID NO:45) sdAb (VHH)
VHH: HVQLVESGGGSVEAGGSLRLSCAASGFRYAAYCMGWFRQADGKEREGVATIDIDGLTTHADSVKGRFTISRDNAKNTLSLQMNDLKPEDTAMYYCAADRDRCGSIWTYAYKYRGQGTLVTVSS
Consider B6, for which the OD450 in assay [26] was 3.86 OD450.
